Measurements reported in article PMC3500527 (Cancer cell, 2012).
Where a chain is given by its changes, count along the chain named.

How the values were obtained:
Cy3-mEVL1-235aa = Cy3-mEVL1-235aa (mouse (from the label mEVL), UniProt P70429 1-235, Cy3 fluorophore (site not stated)); test: AUC
Cy3-hVASP1-240aa = Cy3-hVASP1-240aa (human, UniProt P50552 1-240, Cy3 fluorophore (site not stated)); test: AUC
HA-EVL = molecular target: T1, HA-EVL (UniProt Q9UI08 1-416); test: co-IP
T1 sequence (looked up): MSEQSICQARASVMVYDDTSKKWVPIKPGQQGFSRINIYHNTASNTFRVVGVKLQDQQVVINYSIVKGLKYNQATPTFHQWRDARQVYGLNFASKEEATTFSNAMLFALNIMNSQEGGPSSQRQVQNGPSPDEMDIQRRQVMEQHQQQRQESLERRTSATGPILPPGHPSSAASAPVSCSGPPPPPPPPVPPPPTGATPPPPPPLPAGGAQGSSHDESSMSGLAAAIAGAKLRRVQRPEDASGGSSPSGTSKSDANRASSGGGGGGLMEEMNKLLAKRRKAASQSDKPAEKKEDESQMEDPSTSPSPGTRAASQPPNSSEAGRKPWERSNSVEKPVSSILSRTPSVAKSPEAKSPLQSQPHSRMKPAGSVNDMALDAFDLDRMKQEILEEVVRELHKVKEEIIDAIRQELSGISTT

[1] = molecular target: T2, profilin-2 (immunoprecipitated from cell lysates; mass spectrometry) (UniProt P35080 1-140); test: co-IP
T2 sequence (looked up): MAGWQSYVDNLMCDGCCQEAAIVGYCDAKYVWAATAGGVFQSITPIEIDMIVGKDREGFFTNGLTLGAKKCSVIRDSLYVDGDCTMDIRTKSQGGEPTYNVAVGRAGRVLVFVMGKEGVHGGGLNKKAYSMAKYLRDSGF

B1: mouse profilin-2a (natural protein, UniProt Q9JJV2 1-140, looked up)
chain: T2 sequence (looked up) with I46V
Cy3-mEVL1-235aa
  binding result: binds
Cy3-hVASP1-240aa
  binding result: binds

B2: profilin-2 (natural protein, human (endogenous in SUM159), UniProt P35080 1-140, looked up)
chain: T2 sequence (looked up)
HA-EVL
  fold immunoprecipitated relative to profilin-1: 10 fold

B3: EVL (immunoprecipitated with profilins; mass spectrometry) (natural protein, UniProt Q9UI08 1-416, looked up)
chain: T1 sequence (looked up)
[1]
  fold immunoprecipitated relative to profilin-1: 7 fold

B4: VASP (immunoprecipitated with profilins) (natural protein, UniProt P50552 1-380, looked up)
chain: MSETVICSSRATVMLYDDGNKRWLPAGTGPQAFSRVQIYHNPTANSFRVVGRKMQPDQQVVINCAIVRGVKYNQATPNFHQWRDARQVWGLNFGSKEDAAQFAAGMASALEALEGGGPPPPPALPTWSVPNGPSPEEVEQQKRQQPGPSEHIERRVSNAGGPPAPPAGGPPPPPGPPPPPGPPPPPGLPPSGVPAAAHGAGGGPPPAPPLPAAQGPGGGGAGAPGLAAAIAGAKLRKVSKQEEASGGPTAPKAESGRSGGGGLMEEMNAMLARRRKATQVGEKTPKDESANQEEPEARVPAQSESVRRPWEKNSTTLPRMKSSSSVTTSETQPCTPSSSDYSDLQRVKQELLEEVKKELQKVKEEIIEAFVQELRKRGSP
[1]
  fold immunoprecipitated relative to profilin-1: 1.8 fold
